Experimental data from patent US20030236190A1 (published 2003).
Positions of bridges follow the written chain, without caps; N, C: chain ends. No end group written: not given here.

B1: E4Dα-2-D11-IR (peptide)
peptide: GFREGSFYDWFQAQVT
B2: 20E2Bβ-4-G6-IR (peptide)
peptide: SQAGSAFYAWFDQVLRTVHSA
B3: E2CA-3-E8-IGFR (peptide)
peptide: LGYQEPFQQNFYDWFVRQVSGAENAG
B4: A6S-2-D11-IR (peptide)
peptide: EAASLGSQDRNFYDWFVRQVV
B5: A6S-2-D1-IR (peptide)
peptide: VERSASSQDGNFYDWFVVQIR
B6: A6S-3-E2-IR (peptide)
peptide: TSEVQRRSQDNFYDWFVAQVA
B7: H2CA-3-E11-IGFR (peptide)
peptide: HLADGQFHEKFYDWFERQISSRCNDC
B8: H2CA-3-C11-IGFR (peptide)
peptide: FRTLAAQHDSFYDWFDRQVSGAAGER
B9: 20C-3-G3-IGFR (peptide)
peptide: TFYSCLASLLTGTPQPNRGPWERCR
modifications: disulfide 5-24 (inferred)
B10: 20C-4-C7-IGFR (peptide)
peptide: FFYDCLAALLQGVARYHDLCAVEIT
modifications: disulfide 5-20 (inferred)
B11: R20β-4-A6-IR (peptide)
peptide: RGQSDAFYSGLWALIGLSDG
B12: 20E2B-1-A6-IGFR (peptide)
peptide: GVRAMSFYDALVSVLGLGPSG
B13: 20E2Bβ-4-G7-IR (peptide)
peptide: LQPCSGFYECIERLIGVKLSG
modifications: disulfide 4-10 (inferred)
B14: NNRPγ-4-B11-IR (peptide)
peptide: LKDGFYDYFWQRLHLGS
B15: 20E2B-3-C6-IGFR (peptide)
peptide: VEGRGLFYDLLRQLLARRQNG
B16: 20E2A-4-F11-IGFR (peptide)
peptide: QGGSASFYDAIDRLLRMRIGG
B17: 20C-3-F6-IGFR (peptide)
peptide: DRDFCRFYERLTALVGGQVDGGWPC
modifications: disulfide 5-25 (inferred)
B18: 20E2B-4-H3-IGFR (peptide)
peptide: KLHNLMFYYGLQRLVWGAGLG
B19: 20E22-3-C2-IGFR (peptide)
peptide: GNGDGMFYQLLSLLVGRDMHV
B20: 20C-3-A1-IGFR (peptide)
peptide: SSYGCDGFYLMLFSLGLVASQELEC
modifications: disulfide 5-25 (inferred)
B21: 20E2H-3-E3-IGFR (peptide)
peptide: PDLHKGFYAQLAQLIRGQLLS
B22: R20α-3-2082-IR (peptide)
peptide: FYDAIDQLVRGSARAGGTRD
B23: B6Hα-3-F11-IR (peptide)
peptide: RGMKEEVLVGGSTDPFYHKLSELLQGS
B24: 20E2B-3-D2-IGFR (peptide)
peptide: IQQELTFYDLLHRLVRSELGS
B25: 20E23-3-D8-IGFR (peptide)
peptide: GGTEVDFYRALERLVRGQLGL
B26: 20E22-3-E8-IGFR (peptide)
peptide: LRIANLFYQRLWDLAFGGGG
B27: R20α-4-20C11-IR (peptide)
peptide: DRAFYNGLRDLVGAVYGAWD
B28: 20E22-4-F8-IGFR (peptide)
peptide: PVGVQGFYEGLSRLVLGRGGW
B29: 20E28-1-A11-ICFR (peptide)
peptide: RFSTDGFYQYLLALVGGGPVG
B30: 20E2B-3-D4-IGFR (peptide)
peptide: NSRDGGFYLQLERLLGFPVTG
B31: 20E2B-3-C8-IGFR (peptide)
peptide: QPAPDGFYSALMKLIGRGGVS
B32: 20E2B-2-22-IGFR (peptide)
peptide: PGTDLGFYQALRCVVIQGACD
modifications: not fully specified (bridges); cysteine pairing not given here
B33: 20E2B-4-F9-IGFR (peptide)
peptide: QPDHSYFYSLLQELVGSEERL
B34: 20C-3-A4-IGFR (peptide)
peptide: QFYGCLLDLSLGVPSFGWRRRCITA
modifications: disulfide 5-22 (inferred)
B35: 20E2B-3-D11-IGFR (peptide)
peptide: LGVTDGFYAALGYLIHGVGQF
B36: 20E2B-2-B3-IGFR (peptide)
peptide: ICTGQGFYQVLCGLLRGTSAR
modifications: disulfide 2-12 (inferred)
B37: 20E2B-3-D12-IGFR (peptide)
peptide: QGNVLDFYGWIGRLLAKQGSD

Columns and labels:
[1] = target: T1, Soluble IGF-1R (R&D Systems, Cat. # 391-GR/CF); recombinant human IGF-1R (human, UniProt P08069 31-935); assay: phage ELISA vs milk
T1 construct: extracellular domain; Eu3+-labelled in the TR-FRET assays; also called sIGF-1R; rhIGF-1R

[2] = target: T2, Insulin receptor prepared according to Bass et al., 1996: soluble human insulin receptor-immunoglobulin heavy … (human, UniProt P06213 28-956); assay: phage ELISA vs milk
T2 construct: extracellular domain; Eu3+-labelled in TR-FRET; also called IR; sIR-Fc; not shown: immunoglobulin heavy chain constant domains that replace the transmembrane and i

[3] = target: T1, Soluble IGF-1R (R&D Systems, Cat. # …); assay: phage ELISA, vs IR
[4] = target: T2, Insulin receptor prepared according to …; assay: phage ELISA, vs IGF-1R

| Binder | Ratio over Background [1] [fold] | Ratio over Background [2] [fold] | IGF-1R/IR Comparison [3] [ratio] | IR/IGF-1R Comparison [4] [ratio] |
| --- | --- | --- | --- | --- |
| B1 | 11.1 | 3.3 | 3.4 | 0.3 |
| B2 | 6.2 | 1.9 | 3.3 | 0.3 |
| B3 | 6.3 | 2.2 | 2.9 | 0.3 |
| B4 | 37.4 | 13.9 | 2.8 | 0.4 |
| B5 | 30.6 | 12 | 2.6 | 0.4 |
| B6 | 24.7 | 9.8 | 2.5 | 0.4 |
| B7 | 2.2 | 1 | 2.2 | 0.5 |
| B8 | 3.3 | 1.6 | 2.1 | 0.5 |
| B9 | 32.3 | 1.2 | 27 | < 0.1 |
| B10 | 28 | 1.3 | 21.8 | < 0.1 |
| B11 | 25.9 | 1.5 | 17.3 | 0.1 |
| B12 | 18.1 | 1.1 | 16.8 | 0.1 |
| B13 | 25.2 | 1.6 | 15.8 | 0.1 |
| B14 | 18.7 | 1.2 | 15.5 | 0.1 |
| B15 | 16.8 | 1.1 | 14.8 | 0.1 |
| B16 | 18.8 | 1.3 | 14.6 | 0.1 |
| B17 | 26.1 | 1.9 | 14.1 | 0.1 |
| B18 | 14.8 | 1.1 | 13.9 | 0.1 |
| B19 | 8.9 | 0.6 | 13.8 | 0.1 |

| Binder | Ratio over Background [1] [fold] | Ratio over Background [2] [fold] | IGF-1R/IR Comparison [3] [ratio] | IR/IGF-1R Comparison [4] [ratio] |
| --- | --- | --- | --- | --- |
| B20 | 20.8 | 1.5 | 13.7 | 0.1 |
| B21 | 16.3 | 1.3 | 13.1 | 0.1 |
| B22 | 39.9 | 3.1 | 12.9 | 0.1 |
| B23 | 18.7 | 1.6 | 11.7 | 0.1 |
| B24 | 12.4 | 1.2 | 11.7 | 0.1 |
| B25 | 17.7 | 1.6 | 11.3 | 0.1 |
| B26 | 16.7 | 1.5 | 11.1 | 0.1 |
| B27 | 30.8 | 3 | 10.3 | 0.1 |
| B28 | 7.3 | 0.8 | 9.7 | 0.1 |
| B29 | 9.5 | 1 | 9.7 | 0.1 |
| B30 | 7.9 | 0.8 | 9.6 | 0.1 |
| B31 | 15.6 | 1.8 | 8.9 | 0.1 |
| B32 | 4.9 | 0.6 | 8.1 | 0.1 |
| B33 | 14.7 | 1.9 | 7.7 | 0.1 |
| B34 | 8.8 | 1.2 | 7.6 | 0.1 |
| B35 | 12.2 | 1.6 | 7.6 | 0.1 |
| B36 | 5.3 | 0.7 | 7.4 | 0.1 |
| B37 | 6.2 | 0.9 | 7.3 | 0.1 |
